Data as given in patent publication US20240400654A1.
“And” between values parts separate entries of the source, which are not always exact repeats. Equal values may be shown once.

B1: KB001 mouse Fab variant VL A56M (Fab, V domains shown)
VH: EVQLKQSGPGLVAPSQSLSITCTVSGFSLSIYSVHWVRQPPGKGLEWLGMIWGGGSSDYNSALKSRLSISKDNSKSQVFLKMNSLQTDDTAMYYCARNGNFYAMDYWGQGTSVTVSS
VL: QIVLTQSPAIMSASLGERVTMTCTASSSVSSSFLHWYQQKPGSSPQLWIYSTSNLMSGVPARFSGSGSGTSYSLTISSMEAEDAATYYCHQYHHSPYIYTFGGGTKLEIK
B2: KB001 mouse Fab variant VL S57L (Fab, V domains shown)
VH: EVQLKQSGPGLVAPSQSLSITCTVSGFSLSIYSVHWVRQPPGKGLEWLGMIWGGGSSDYNSALKSRLSISKDNSKSQVFLKMNSLQTDDTAMYYCARNGNFYAMDYWGQGTSVTVSS
VL: QIVLTQSPAIMSASLGERVTMTCTASSSVSSSFLHWYQQKPGSSPQLWIYSTSNLALGVPARFSGSGSGTSYSLTISSMEAEDAATYYCHQYHHSPYIYTFGGGTKLEIK
B3: KB001 mouse Fab variant VL S57I (Fab, V domains shown)
VH: EVQLKQSGPGLVAPSQSLSITCTVSGFSLSIYSVHWVRQPPGKGLEWLGMIWGGGSSDYNSALKSRLSISKDNSKSQVFLKMNSLQTDDTAMYYCARNGNFYAMDYWGQGTSVTVSS
VL: QIVLTQSPAIMSASLGERVTMTCTASSSVSSSFLHWYQQKPGSSPQLWIYSTSNLAIGVPARFSGSGSGTSYSLTISSMEAEDAATYYCHQYHHSPYIYTFGGGTKLEIK
B4: KB001 mouse Fab variant VL S57N (Fab, V domains shown)
VH: EVQLKQSGPGLVAPSQSLSITCTVSGFSLSIYSVHWVRQPPGKGLEWLGMIWGGGSSDYNSALKSRLSISKDNSKSQVFLKMNSLQTDDTAMYYCARNGNFYAMDYWGQGTSVTVSS
VL: QIVLTQSPAIMSASLGERVTMTCTASSSVSSSFLHWYQQKPGSSPQLWIYSTSNLANGVPARFSGSGSGTSYSLTISSMEAEDAATYYCHQYHHSPYIYTFGGGTKLEIK
B5: KB001 mouse Fab variant VL S57K (Fab, V domains shown)
VH: EVQLKQSGPGLVAPSQSLSITCTVSGFSLSIYSVHWVRQPPGKGLEWLGMIWGGGSSDYNSALKSRLSISKDNSKSQVFLKMNSLQTDDTAMYYCARNGNFYAMDYWGQGTSVTVSS
VL: QIVLTQSPAIMSASLGERVTMTCTASSSVSSSFLHWYQQKPGSSPQLWIYSTSNLAKGVPARFSGSGSGTSYSLTISSMEAEDAATYYCHQYHHSPYIYTFGGGTKLEIK
B6: KB001 mouse Fab variant VL S57F (Fab, V domains shown)
VH: EVQLKQSGPGLVAPSQSLSITCTVSGFSLSIYSVHWVRQPPGKGLEWLGMIWGGGSSDYNSALKSRLSISKDNSKSQVFLKMNSLQTDDTAMYYCARNGNFYAMDYWGQGTSVTVSS
VL: QIVLTQSPAIMSASLGERVTMTCTASSSVSSSFLHWYQQKPGSSPQLWIYSTSNLAFGVPARFSGSGSGTSYSLTISSMEAEDAATYYCHQYHHSPYIYTFGGGTKLEIK
B7: KB001 mouse Fab variant VL S57Q (Fab, V domains shown)
VH: EVQLKQSGPGLVAPSQSLSITCTVSGFSLSIYSVHWVRQPPGKGLEWLGMIWGGGSSDYNSALKSRLSISKDNSKSQVFLKMNSLQTDDTAMYYCARNGNFYAMDYWGQGTSVTVSS
VL: QIVLTQSPAIMSASLGERVTMTCTASSSVSSSFLHWYQQKPGSSPQLWIYSTSNLAQGVPARFSGSGSGTSYSLTISSMEAEDAATYYCHQYHHSPYIYTFGGGTKLEIK
B8: KB001 mouse Fab variant VL S57A (Fab, V domains shown)
VH: EVQLKQSGPGLVAPSQSLSITCTVSGFSLSIYSVHWVRQPPGKGLEWLGMIWGGGSSDYNSALKSRLSISKDNSKSQVFLKMNSLQTDDTAMYYCARNGNFYAMDYWGQGTSVTVSS
VL: QIVLTQSPAIMSASLGERVTMTCTASSSVSSSFLHWYQQKPGSSPQLWIYSTSNLAAGVPARFSGSGSGTSYSLTISSMEAEDAATYYCHQYHHSPYIYTFGGGTKLEIK

Columns and labels:
[1] = target: HRgpA-6H (Porphyromonas gingivalis) (UniProt P28784); experiment: ELISA, FASEBA Fab supernatant on coated HRgpA-6H
[2] = target: HRgpA-6H (Porphyromonas gingivalis) (UniProt P28784); experiment: ELISA on coated HRgpA-6H, OD relative to parental Fab

Sequence of UniProt P28784 (P28784 228-860 limits assumed): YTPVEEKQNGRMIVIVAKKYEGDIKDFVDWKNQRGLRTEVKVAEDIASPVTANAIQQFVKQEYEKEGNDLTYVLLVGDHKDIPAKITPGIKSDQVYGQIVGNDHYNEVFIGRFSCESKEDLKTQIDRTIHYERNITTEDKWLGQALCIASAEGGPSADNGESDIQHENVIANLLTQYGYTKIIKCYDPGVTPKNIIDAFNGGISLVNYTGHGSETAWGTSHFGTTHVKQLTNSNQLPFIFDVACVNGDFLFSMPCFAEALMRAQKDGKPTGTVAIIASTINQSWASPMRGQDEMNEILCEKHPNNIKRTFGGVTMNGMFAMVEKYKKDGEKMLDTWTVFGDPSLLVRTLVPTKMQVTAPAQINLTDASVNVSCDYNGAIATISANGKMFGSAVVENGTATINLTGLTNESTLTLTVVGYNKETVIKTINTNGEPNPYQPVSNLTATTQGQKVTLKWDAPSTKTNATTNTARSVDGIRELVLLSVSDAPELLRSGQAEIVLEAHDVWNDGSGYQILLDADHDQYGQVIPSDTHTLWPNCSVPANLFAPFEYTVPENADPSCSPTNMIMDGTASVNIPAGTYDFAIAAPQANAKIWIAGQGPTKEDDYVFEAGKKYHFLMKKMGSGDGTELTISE

Row | Binder | OD450 nm [1] | Ratio OD(Variant)/OD(WT) [2]
1 | B1 | 0.802 and 0.701 | 0.983 fold and 0.86 fold
2 | B2 | 0.781 | 0.958 fold
3 | B3 | 0.791 | 0.97 fold
4 | B4 | 0.813 | 0.997 fold
5 | B5 | 0.712 | 0.873 fold
6 | B6 | 0.785 and 0.787 and 0.797 | 0.963 fold and 0.965 fold and 0.977 fold
7 | B7 | 0.658 | 0.807 fold
8 | B8 | 0.806 | 0.988 fold
